Km and kcat data for one protein are collected here from PMC5066087, “In Vitro Bioconversion of Pyruvate to n-Butanol with Minimized Cofactor Utilization” (Frontiers in Bioengineering and Biotechnology, 2016).

Substrate in data set [1]: CC=O
Nature of the data set: purified protein. Format: biochemical, Geobacillus stearothermophilus. The note with it: 0.3 mM NADH, 2.5 mM MgSO4, 100 mM HEPES pH 7, 50°C, acetaldehyde 0.01–0.14 mM.

Substrate in data set [2]: CCCC=O
The data set is described as follows: purified protein. It counts as biochemical, Geobacillus stearothermophilus. The following applies: 0.3 mM NADH, 2.5 mM MgSO4, 100 mM HEPES pH 7, 50°C, butyraldehyde 0.8–3 mM.

B1: ADH (ADH-HT) (Geobacillus stearothermophilus) (protein)
chain: MKAAVVEQFKEPLKIKEVEKPTISYGEVLVRIKACGVCHTDLHAAHGDWPVKPKLPLIPGHEGVGIVEEVGPGVTHLKVGDRVGIPWLYSACGHCDYCLSGQETLCEHQKNAGYSVDGGYAEYCRAAADYVVKIPDNLSFEEAAPIFCAGVTTYKALKVTGAKPGEWVAIYGIGGLGHVAVQYAKAMGLNVVAVDIGDEKLELAKELGADLVVNPLKEDAAKFMKEKVGGVHAAVVTAVSKPAFQSAYNSIRRGGACVLVGLPPEEMPIPIFDTVLNGIKIIGSIVGTRKDLQEALQFAAEGKVKTIIEVQPLEKINEVFDRMLKGQINGRVVLTLEDK
notes: codon-optimised synthetic gene in pET-22b (NdeI/XhoI), C-terminal His-tag, expressed in E. coli, IMAC purified
For orientation: Km means the concentration of substrate that gives half-maximal velocity. What is called kcat is the number of substrate molecules converted per active site and unit of time at saturation. Regarding B1, in the data set “purified protein [1]”, the Km was 65 ± 5 µM and the kcat is 141.44 ± 14.52 s⁻¹. Besides, in the data set “purified protein [2]”, the Km was 1430 ± 160 µM and the kcat turned out to be 49.16 ± 3.8 s⁻¹.
